Test results as given in the DeepSol protein solubility set.

test: soluble on expression in E. coli; label from the status in PepcDB or PDB records

Sequence	soluble on expression in E. coli
MIHEITLDGKIVRYKVVEKPVKYVTLRFLEDGTLLVVTPSKEIVREVLIKKRNWILSKLSIIEEAKELAGEGFPLFGRFYSLEIGEKFEIDDKNRIIIYPGIDVLRDWIKKEVKRRAQEISKEFGVAPKRIYVRVMKTKWGSTTWRKSVTLNLSSVALPEELFHYLVIHELAHLIELNHSKRFWSIVARYHPDYKEKRRELKKWWFIVHLNETWRAILQWPGGGSSSSWALEHHHHHH	soluble
MIIDEKRVQEIKNGETSLGIEFGSTRIKAVLIANDFSILASGSFEWETSLENGVWTYSIDEIWKGLQYSYQKLFAEVKEKYGVVLSKIGSIGFSAMMHGYMAFDNKGELLVPFRTWRNTMTEEAAKKLTDLFKFNIPERWSIAHLYQAILRNEPHVEKIDFLTTLAGYIHWQLTGEKVLGIGDASGMFPIDTQTHNYDKNMLETFKNLPEVKKHSLDLEKLLPKVLLAGENAGVLTLEGAKKLDVSGNLQPGIPLCPPEGDAGTGMVATNSVAPRTGNVSAGTSIFAMVVLEKPLNRVHPEIDIVTTPSGDLVAMVHANNGCSDLEAWVNIFQQFTEAINVDMRKDLLYMALYTQAFQGDPDCGGVLAYNYFAGENITGVSEGRPMVVRKAKSNFNLPNFMRAHLFTSLGALKIGMDILLKDEAVKLDKLLGHGGLFKTPIVGQAAVAGAVNAPVSVMETAGEGGAWGIALLASYLRSKENDSTLPEFLSKNVFAGYVAEEVQPDPKDVKGFEEFIERYKKGIAIEQAAVEHLILEHHHHHH	not soluble
MIIGYFDGLCEPKNPGGIATFGFVIYLDNRKIEGYGLAEKPFSINSTNNVAEYSGLICLMETMLRLGISSPIIKGDSQLVIKQMNGEYKVKAKRIIPLYEKAIELKKKLNATLIWVPREENKEADRLSRVAYELVRRGKLRDIGCIILT	soluble
MIIREATVQDYEEVARLHTQVHEAHVKERGDIFRSNEPTLNPSFFQAAVQGEKSTVLVFVDEREKIGAYSVIHLVQTPLLPTMQQRKTVYISDLCVDETRRGGGIGRLIFEAIISYGKAHQVDAIELDVYDFNDRAKAFYHSLGMRCQKQTMELPLLEHHHHHH	soluble
MIITTTPTVENRQIIEYKGLVFGEVVAGANIIRDFFASITDMIGGRSGVYEDKLNVARQEALVELQKQARNIGANAVIGVSIQYQSMGKKDMFIIVATGTAVVIGLEHHHHHH	not soluble
MIKAILIFNNHGKPRLCKFYQHYSEDTQQQIIRETFHLVSKRDENVCNFLEGGLLIGGSDNKLIYRHYATLYFVFCVDSSESELGILDLIQVFVETLDKCFENVCELDLIFHVDKVHNILAEMVMGGMVLETNMNEIVTQIDA	soluble
MIKDPRPLNDKAFIQQCIRQLCEFLTENGYAHNVSMKSLQAPSVKDFLKIFTFLYGFLCPSYELPDTKFEEEVPRIFKDLGYPFALSKSSMYTVGAPHTWPHIVAALVWLIDCIKIHTAMKESSPLFDDGQPWGEETEDGIMHNKLFLDYTIKCYESFMSGADSFDEMNAELQSKLKDLFNVDAFKLESLEAKNRALNEQIARLEQERSTANKANAERLKRLQKSADLYKDRLGLEIRKIYGEKLQFIFTNIDPKNPESPFMFSLHLNEARDYEVSDSAPHLEGLAEFQENVRKTNNFSAFLANVRKAFTATVYQ	soluble
MIKKWLSVALISTAAMMPHTTFASDTLLQKAQQENRQQQTHNASRESGFKKTEQELQAIKNKLVAERAALQAEADTLSVTFSENEAELAQLEEKLRLETGSLGELFGVVRQNAKELESELKHAVTGVDANSYQKDIEAIVAAKSLPTLKQLQAMWRSMEEQVTASGELAKVSFTLLDGEGKEQTVNGVRLGAMALLDDNGYVKWNGQRGDAVNYLRQPENGPTASAFTNGELDSLVIDPSRGILLEQLANSPTLKDRLNAGGVVGQ	not soluble
MIKLAPAALKADLQVRQERVRIAMEEEGYDALLVTSNVNLLYLFGSIYGGAAYLPAEGEPIFFVRRPQVIEEGNVCPIRKLEDIPALIQSRGGVLPRRIMLENDESSYSDIKRQHSIFPNAEYGNATALLRRLRMIKTPGEIELFRRTAAIHGEVYACIPSVFRPGMTDREFQVEIEHLMRNYGSEGIFRTFGSAMEIHMGNVIVGDNAESPSPYDFAMGGGGTDALPLGADGSPMKEGMCVMVDMAGNYSAYISDMTRSYAIGKVPDEARRLHDLSREIQAKVMETAEPGMSCADLYKRSVEMAEEAGAADKFMGTKQQAKFVGHGIGLQINEMPVLMARSKEILTPGMVIAFEPKFVLPGIGAVGNENSFLVTESGVEKLTVCSEELIDLLAVAKQ	not soluble
MIKLGWASFSNTEFAQDIFIKFANQFYKQDDAGTILFELKKTLGVNQLDEIEKNKKVIIVNQFQNSLGKFLLFNKENTKRINSLANEHISSFLKKIFRLSGFKDMLIDVQHHKKLQKCLLREIHLLVCLINSNQFSDELMQIIEWYQYLKKHSSKLFVITASSDKKPVIEPTINEYKAIFGEYLSSFHLDLKNNQSNDLFQKLLDQIKIKATSKTSLR	soluble
MIKMTQSRLHAAQNALAKLHEHRGNTFYPHFHLAPPAGWMNDPNGLIWFNDRYHAFYQHHPMSEHWGPMHWGHATSDDMIHWQHEPIALALGDDNDKDGCFSGSAVDDNGVLSLIYTGHVWLDGAGNDDAIREVQCLATSRDGIHFEKQGVILTPPEGIMHFRDPKVWREADTWWMVVGAKDPGNTGQILLYRGSSLREWAFDRVLAHADAGESYMWECPDFFSLGDQHYLMFSPQGMNAEGYSYRNRFQSGVIPGMWSPGRLFAQSGHFTELDNGHDFYAPQSFLAKDGRRIVIGWMDMWESPMPSKREGWAGCMTLARELSESNGKLLQRPVHEAESLRQQHQSVSPRRISNKYVLQENAQAVEIQLQWALKNSDAEHYGLQLGTGMRLYIDNQSERLILWRYYPHENLDGYRSIPLPQRDTLALRIFIDTSSVEVFINDGEAVMSSRIYPQPEERELSLYASHGVAVLQHGALWLLGLEHHHHHH	soluble
MIKYARQIYSTKQEVIMATYFSDNLTADQQNQVQQIIQQFQHPTLQKDLIVLNTLKKVEKGGDTLRIELQLPFAWNSGAEQLKQAVSDALLKATDCKLIKWAVAYQIATLKRANNQPAVKGVKNIIAVSSGKGGVGKSSVSVNLALALQAQGARVGILDADIYGPSIPHMLGAADQRPTSPDNQHITPIKAHGLSANSIGFLMNEDSATIWRGPMASSALSQLLNETLWDSLDYLVIDMPPGTGDIQLTLSQQIPVTGAVVVTTPQDIALLDAVKGISMFERVSVPVLGIVENMSMHICSECGHHEAIFGTGGAEKMAEKYNVKVLAQLPLHIRIREDLDAGNPTVVRVPENEISQAFLQLAEKVSTELYWQGSVIPSEILFKEVKLEHHHHHH	soluble
MIKYSIRGENLEVTEAIRDYVVSKLEKIEKYFQPEQELDARINLKVYREKTAKVEVTIPLGSITLRAEDVSQDMYGSIDLVTDKIERQIRKNKTKIERKNKNKVATGQLFTDALVEDSNIVQSKVVRSKQIDLKPMDLEEAILQMDLLGHDFFIYVDVEDQTTNVIYRREDGEIGLLEVKESAAALEHHHHHH	soluble
MILGICGSPRKQATEHVLERALSMLEDDGLETEFFTVRGKNISPCRHCDYCLRNKECVLKDDMFPLYELLRRAAGIIIATPVYNGGVSAQIKAIMDRCRALGAEDYDSLRGKVGMGIAVGGDRCGGQEPALMQIHTFYILNGVIPVSGGSFGANLGACFWSRDTLEVLKRTHMDSKPSKRPWACLKGSWTLKDPEILFYSEFILEHHHHHH	not soluble
MILINKRAEKQDYQTILAIWEKSVIVTHDFLTAEDRQFYKEQIPLFLDNVELFLWFAGEEVIGFSGTSERELDMLFLDPVATGNGYGSQILGWLIENKRINLVDVNEQNENATRFYLKHGFVVSSRSDLDGFGKPYPILQLQLKERVNGV	soluble
MILVGNGRLISQDSLNPYMEDGCVVINDNLIEDIGTTEEMKAKYPVHEFIDAGKKIIMPGLINSHMHIYSSFARGMAVPGKPSENFLEILNNLWWRLDKQLTLEDTKYSAYATYIECIKNGVTTVYDHHASPNAIEGSLFTISDVAKDLGIRTCLCYEVSDRDGGNTIQQGINENVNFIKYAQKDDTDMIKGMFGLHAAFTLSDDTLNKCASEMAGLDTGYHVHVAEGLADLQYNVDKYGKRVLERFNDFGVLKEKTIAVHCIYISAEEISFLNKTNTFVVHNPESNMGNAVGCSPAIELLKRGVTVGLGTDGYTSDMFESLKVANIIHKHHLKDPRVGFEESQTMLFDNNRKIAKAYYKNDLGVLKKGAYADVIVVDYIPHTPLTENTIGGHTIFGMSGRSVDTTIINGKVLMKDRKLINIDEESILAKSRELSQNLWNRI	not soluble
MIMANILFIDNFDSFTYNLVDQFRSLGHVVTIYRNNLSADAIEQALLQLDNPVVVLSPGPGAPSETGCMPELLQRLKGKVPMIGICLGHQAIVEAYGGVVAGAGEIIHGKVSMMEHQNHAIYRGLPSPLAIARYHSLVATQVPSALTVTAEVNGLVMSVVNEADKVCGFQFHPESIMTTHGATLLANAIDWALSSTPAQTQFA	not soluble
MINEIKKDAQERMDKSVEALKNNLSKVRTGRAHPSLLSGISVEYYGAATPLNQVANVVAEDARTLAITVFDKELTQKVEKAIMMSDLGLNPMSAGTIIRVPLPPLTEERRKDLVKIVRGEAEGGRVAVRNIRRDANNDLKALLKDKEISEDEDRKAQEEIQKLTDVAVKKIDEVLAAKEKELMEV	soluble
MINMKFFNRVEEIKEILSILEEEPNLIYFIYGPINSGKTALINEIINNRLDKNKYVVFYIDLREIFISKYDEFEAKLRATKTFGFRLIIEVLFEEYEDDKKPIEIIRSLIKDAPSLCGIPTPKNTLEEILKKKTTKNVFKYITNILMDIKREGKQPIIIIDELQKIGDMKINGFLIYELFNYFVSLTKHKHLCHVFCLSSDSLFIERVYNEAMLKERVDYILVDDFDKETALKFIDFLSEEILNKKLSDEDKELIYSYVGGKPILIINVIGKLKHKNLKDVLNILLMDEISKLKDFLSNLDYIKPKVNIEEEIIEIRKEDIINALKLFKGKYEIEVDKIPKAVYVYLVKKNILFLYPQRGTLKPQSFLVWNAIKRVL	not soluble
MINNSFWQGKRVFVTGHTGFKGGWLSLWLQTMGATVKGYSLTAPTVPSLFETARVADGMQSEIGDIRDQNKLLESIREFQPEIVFHMAAQPLVRLSYSEPVETYSTNVMGTVYLLEAIRHVGGVKAVVNITSDKCYDNKEWIWGYRENEAMGGYDPYSNSKGCAELVTSSYRNSFFNPANYGQHGTAVATVRAGNVIGGGDWALDRIVPDILRAFEQSQPVIIRNPHAIRPWQHVLEPLSGYLLLAQKLYTDGAEYAEGWNFGPNDADATPVKNIVEQMVKYWGEGASWQLDGNAHPHEAHYLKLDCSKAKMQLGWHPRWNLNTTLEYIVGWHKNWLSGTDMHEYSITEINNYMNTK	soluble
MINSPRVCIQVQSVYIEAQSSPDNERYVFAYTVTIRNLGRAPVQLLGRYWLITNGNGRETEVQGEGVVGVQPLIAPGEEYQYTSGAIIETPLGTMQGHYEMIDENGVPFSIDIPVFRLAVPTLIH	soluble
MIPEEIYKILRKQRYQIDGHTAVKLCGWVRKKMLEDKNCYKSKFYGIETHRCIQCTPSVIWCQQNCIFCWRVLPRDIGIDISQIKEPKWEEPEVVYEKILAMHKRIIMGYAGVLDRVGEKKFKEALEPKHVAISLSGEPTLYPYLDELIKIFHKNGFTTFVVSNGILTDVIEKIEPTQLYISLDAYDLDSYRRICGGKKEYWESILNTLDILKEKKRTCIRTTLIRGYNDDILKFVELYERADVHFIELKSYMHVGYSQKRLKKEDMLQHDEILKLAKMLDENSSYKLIDDSEDSRVALLQNENRKINPKL	soluble
